The results in this text go back to US20070154481A1 (UCB, published 2007).

Where “and” joins values, the source holds several entries; their conditions need not be identical. Equal values may be shown once.

Experiment [1] has as its target T1, Recombinant Rhesus monkey IL-6 (rhesus monkey, UniProt P51494 28-212, limits assumed).
T1 sequence (looked up): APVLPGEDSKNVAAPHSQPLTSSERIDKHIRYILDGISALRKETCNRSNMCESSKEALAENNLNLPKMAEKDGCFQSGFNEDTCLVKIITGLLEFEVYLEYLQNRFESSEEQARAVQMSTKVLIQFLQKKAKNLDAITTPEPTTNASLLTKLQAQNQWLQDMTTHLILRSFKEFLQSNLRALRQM
Nature of the experiment: cell-based or functional assay.

Experiment [2] addresses Human mammalian-derived IL-6 (human, UniProt P05231 30-212). Nature of the experiment: cell-based or functional assay.
Experiment [3] deals with T2, Recombinant cynomologous monkey IL-6 (cynomolgus monkey, UniProt P79341 28-212, limits assumed).
T2 sequence (looked up): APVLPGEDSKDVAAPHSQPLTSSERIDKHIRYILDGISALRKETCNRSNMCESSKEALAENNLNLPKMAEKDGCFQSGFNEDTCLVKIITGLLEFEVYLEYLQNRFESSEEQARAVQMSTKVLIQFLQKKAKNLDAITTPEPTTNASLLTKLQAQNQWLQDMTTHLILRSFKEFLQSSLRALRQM
In words: cell-based or functional assay.

Experiment [4] addresses T3, Recombinant human IL-6 (human, UniProt P05231 29-212). In words: cell-based or functional assay.
Experiment [5] addresses T3, Recombinant human IL-6. In words: BIAcore 3000; mean of the two determinations of Table 1.1. Here is the method: (§1) BIA (Biamolecular Interaction Analysis) was performed using a BIAcore 3000 (BIAcore AB). Affinipure F(ab′)₂ Fragment goat anti-human IgG, Fc fragment specific (Jackson ImmunoResearch) was immobilised on a CM5 Sensor Chip via amine coupling chemistry to a capture level of ≈5000 response units (RUs). HBS-EP buffer (10 mM HEPES pH 7.4, 0.15 M NaCl, 3 mM EDTA, 0.005% Surfactant P20, BIAcore AB) was used as the running buffer with a flow rate of 10 μl/min. A 10 μl injection of CA030₋240.g1 at 4 μg/mL was used for capture by the immobilised anti-human IgG-Fc. Human IL-6 was titrated over the captured CAO30₋240.g1 at various concentrations at a flow rate of 30 μL/min. The surface was regenerated by a 10 μL injection of 40 mM HCl, followed by a 5 μL injection of 5 mM NaOH at a flowrate of 10 μL/min.
(§2) Background subtraction binding curves were analysed using the BIAevaluation software (version 3.2) following standard procedures. Kinetic parameters were determined from the fitting algorithm.
One batch of CA030₋240.g1 was used in this study.

For experiment [6], the target named is T3, Recombinant human IL-6. Nature of the experiment: BIAcore 3000; IgG4 captured by anti-human Fc F(ab')2, human IL-6 as analyte. Here is the method:
as §1, §2

B1: CA030-00240.g1 whole IgG4 (antibody, V domains shown)
VH: EVQLVESGGGLVQPGGSLRLSCAASGFNFNDYFMNWVRQAPGKGLEWVAQMRNKNYQYGTYYAESLEGRFTISRDDSKNSLYLQMNSLKTEDTAVYYCARESYYGFTSYWGQGTLVTVSS
VL: DIQMTQSPSSLSASVGDRVTITCQASQDIGISLSWYQQKPGKAPKLLIYNANNLADGVPSRFSGSGSGTDFTLTISSLQPEDFATYYCLQHNSAPYTFGQGTKLEIKR
notes: Made in CHO cells; also called CA030-240.g1; CA030_240.g1
Consider B1, for which the “ND50, inhibition of IL-6 induced proliferation of T1165 cells” value in experiment [1] was 2.2 ng/ml and 14.5 pM; in experiment [2], 3.6 ng/ml and 23.8 pM; in experiment [3], 5.4 ng/ml and 35.6 pM; in experiment [4], 1.1 ng/ml and 7.26 pM. Besides, the Kd in experiment [5] is 9.76 pM; in experiment [6], 10.5 pM and 9.02 pM. Besides, the koff in experiment [6] was found to be 7.68e-06 s⁻¹. For the same molecule, in experiment [6], the association rate constant (kon) is 731000 M⁻¹ s⁻¹ and 852000 M⁻¹ s⁻¹.
